Reference: patent US6528098B2, “Preparation of a therapeutic composition” (Advanced Viral Research Corp., priority 1996, dated 2003)
“Also recorded” adds a separate entry of the source. No end group written: not given here.

Columns and labels:
[1] = test system: pronase from S. griseus; test: Treatment of Product R with pronase, SDS-PAGE on a 16% gel; type: physicochemical; design: key: “−” represents no substantial alteration of the stainable bands; “+” represents substantial alteration of the stainable bands; settings: 2 mg/ml pronase, 40° C., 75 minutes
Procedure: (§1) The biochemical properties of the peptides: Some biochemical properties of the silverstainable peptide components of Product R are analyzed using various catabolic enzymes, as described below:
The treatment with pronase (Boehringer Mannlheim. USA): Pronase is a non-specific protease, acts on both native and denatured proteins. It breaks down virtually all proteins into their individual amino acids. The preparation contains various types of endo-peptidases such as srine and metalloproteases, exo-peptidases such as carboypepsidases, neutral protease and neutral and alkaline phosphatases. A Product R sample is incubated in a reaction buffer containing 100 mM Tris-HCl, pH 7.4; 10 mM CaCl2; 0.1% SDS and 2 mg/ml of pronase from S. griseus at 40° C. for 75 minutes and then subject to SDS-PAGE on a 16% gel. All silver stained components disappear after such treatment of pronase.
(§2) A summary of the above described treatments by catabolic enzymes is provided in the following TABLE III, and the results of the treatment are shown in FIG. 5, wherein “−” represents no substantial alteration of the stainable bands and “+” represents substantial alteration of the stainable bands.

[2] = target: T1, proteinase K (Parengyodontium album, UniProt P06873); test: Treatment of Product R with proteinase K, SDS-PAGE on a 16% gel, silver stain; type: physicochemical; design: key to Sensitivity of the Peptide Components of Product R (SDS-PAGE): Proteinase K (100 μg/ml) / Sensitivity of the Peptide Components of Product R (SDS-PAGE): Proteinase K (800 μg/ml): “−” represents no substantial alteration of the stainable bands; “+” represents substantial alteration of the stainable bands; settings: for Sensitivity of the Peptide Components of Product R (SDS-PAGE): Proteinase K (800 μg/ml) / change of silver stained bands after proteinase K treatment: 800 μg/ml proteinase K, one hour
T1 construct: purchased ICN Biochemicals
T1 sequence (P06873 106-384): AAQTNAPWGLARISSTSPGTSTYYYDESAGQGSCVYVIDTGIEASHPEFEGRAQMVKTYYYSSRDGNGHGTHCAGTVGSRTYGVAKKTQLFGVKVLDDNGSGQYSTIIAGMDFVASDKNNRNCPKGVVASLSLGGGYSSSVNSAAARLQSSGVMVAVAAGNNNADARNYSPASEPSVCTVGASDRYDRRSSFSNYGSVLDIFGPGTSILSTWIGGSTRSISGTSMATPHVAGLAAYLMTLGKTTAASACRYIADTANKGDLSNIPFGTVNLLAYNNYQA
Procedure: as §1
The treatment with proteinase K (ICN Biochemicals): Proteinase K is a non-specific broad spectrum protease that cleaves peptide bonds at the C-terminal of aliphatic, aromatic and hydrophobic amino acids. It may cleave all serum peptides completely at 50 μg/ml within one hour. […]
as §2

[3] = target: T2, bovine pancreatic Ribonuclease A (Bos taurus, UniProt P61823); test: Treatment of Product R with ribonuclease A, SDS-PAGE on a 16% gel; type: physicochemical; design: key: “−” represents no substantial alteration of the stainable bands; “+” represents substantial alteration of the stainable bands; settings: 37° C., about 1 hour
T2 construct: purchased ICN Biochemicals, USA
T2 sequence (P61823 27-150): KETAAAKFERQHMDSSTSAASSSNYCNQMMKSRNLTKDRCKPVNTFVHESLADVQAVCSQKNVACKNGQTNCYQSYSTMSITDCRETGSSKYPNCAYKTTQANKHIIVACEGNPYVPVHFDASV
Procedure: as §1
The treatment with ribonuclease A (ICN Biochemicals, USA): Ribonuclease A is a pyrimidine specific endoribonuclease that acts on single stranded RNA. A Product R sample is incubated in a reaction buffer containing 10 mM Tris-HCl, pH 7.4, 3 mM MgCl2, and I mg/ml of bovine pancreatic Ribonuclease A at 37° C. for about 1 hour and subject to SDS-PAGE on a 16% gel. […] The resistance to ribonuclease A excludes the possibility of the presence of a RNA fragment attached to the peptide.
as §2

[4] = test system: IL-8 secretion by U937 cells; test: IL-8 secretion by cultured U937 cells, ELISA; type: cell-based, human; settings: for production of interlukin-8 (IL-8) in U937 cells: general statement; for up-regulation of IL-8 secretion compared with Product R: peptide solutions 2 mg/ml, equimolar mixture 4 mg/ml, final concentration 10% in culture media, FIG. 20
Procedure: Ammonium sulfate precipitation of Product U peptides: Product U samples are lyophilized and re-dissolved in 20% of original sample volume in water (5X concentrated). Ammonium sulfate crystals are added to the solution to reach 60% ammonium sulfate saturation (390 mg/ml solution). Gentle mixing solubilizes crystals. Protein precipitates appear after 30 mm to 1 hr incubation on ice and is centrifuged at 16,000×g for 30 min. at […]. The pellet is dissolved in 5% of original sample volume in water. The solution is desalted by gel filtration chromatography through a column of BioGel P-2. The column is eluted with 0.1X phosphate buffered saline (PBS). Only protein containing fractions are pooled and lyophilized.
Separation and isolation of two major neptide of Product R by gel ruhranon chromatography: A BioGel P-10 column (1.6 cm×52 cm) was equilibrated with 0.1X concentration of PBS. Two ml of 2X concentrated Product R was applied to the column, which was eluted with the same buffer at a flow rate of 25 mI/hr. Four mm. fractions were collected. All protein-containing fractions are analyzed by Sodium dodecyl sulfate polyacrilamide gel electrophoresis (SDS-PAGE). Fraction, containing primarily peptide A and peptide B are pooled separately and lyophilized. Peptide A pool contains very little contamination of the other peptide, however, the peptide B pool is highly enriched but still contains peptide A as a major contaminant. A reasonable estimate of peptide purity in the pools is >90% for peptide A and >75% for peptide B.
U937 cell culture: The U937 human hystiocytic lymphoma cell line was purchased from the American Type Culture Collection. Cells were thawed and maintained in logarithmic growth (5-9×10^5 cells/mL) in RPMI 1640 culture medium, supplemented with 10% fetal bovine serum, heat inactivated at 56° C. for 30 min, 2mM L-glutamine and 1x Penicillin-Streptomycin.
Product R or isolated peptide treatment: Cells (1.0×10^5/ml) are cultured in growth medium containing Product R, isolated purified peptide solution, mixed peptides solution or Dulbecco's PBS for 2 days. Following centrifugation, the culture supernatants are analyzed using chemokine ELISA kits. Final concentration of Product R in the culture medium was 10% (v/v). The ammonium sulfate precipitated peptides were reconstituted in culture medium to yield a 10 mg/ml solution. Two 2-fold dilutions were prepared, also using culture medium as diluent. These solutions were used at a final concentration of 10% in the U937 cell culture. The individual lyophilized peptides were reconstituted in endotoxin-free water to yield 2 mg/ml solutions (which is the approximate concentration of each peptide in Product R). An equimolar mixture of both peptides was prepared at a final concentration of 4 mg/ml. Both were used at a final concentration of 10% in the culture media for the assays.
Measurement of secreted IL-8 and MCP-1: The concentrations of IL-8 and MCP-1 in the culture supernatants are assayed by ELISA, using human IL-S ELISA kits (Endogen. Inc.) and Quantikine human MCP-1 ELISA kits (R&D Systems, Inc.), respectively, according to manufacturer's instructions (with slight modifications for the MCP-1 ELISA). […] Absorbances are measured on a PowerWave 200 Microplate Scanning Spectrophotometer. Dilutions of the standard protein supplied by each manufacturer are utilized to generate a four-parameter logistic fit standard curve, and the concentration of chemokine in each supernatant is determined by extrapolation.

Sequence | Sensitivity of the Peptide Components of Product R (SDS-PAGE): Pronase (2 mg/ml) [1] | Sensitivity of the Peptide Components of Product R (SDS-PAGE): Proteinase K (100 μg/ml) ([2]; 100 μg/ml proteinase K, 40° C., 30 minutes) | Sensitivity of the Peptide Components of Product R (SDS-PAGE): Proteinase K (800 μg/ml) [2] | change of silver stained bands after proteinase K treatment [2] | Sensitivity of the Peptide Components of Product R (SDS-PAGE): Ribonuclease A (1 mg/ml) [3] | production of interlukin-8 (IL-8) in U937 cells [4] | up-regulation of IL-8 secretion compared with Product R ([4]; listed as Peptide B) | up-regulation of IL-8 secretion compared with Product R ([4]; listed as peptide-B) | up-regulation of IL-8 secretion compared with Product R [4]
GEIPDAGGRIVDYYVGFSDSV (not fully specified (residue 18)) [Peptide-B, 21-amino acid peptide linked at serine 18 through a diphosphodiester group to the 3′-end of an adenylyl (3′-5′) adenosine moiety] | + | − | − | no obvious change | − | capable of inducing the production; also recorded: contributes more to the activity than peptide-A | maintained most of the ability of Product R to up-regulate IL-8 secretion | induces higher levels of secretion of IL-8 or MCP-1 than peptide-A | 
KVLPVPQKAVPYPQRDMPIQAFLLYQEPVLG [Peptide-A, 31-amino-acid long peptide derived from bovine beta-casein, constituent of Product R] | + |  | + | disappears | − | capable of inducing the production |  |  | only elicited a less response
